Patent US20090285807A1 (METHERESIS TRANSLATIONAL RESEARCH, published 2009)

B1: recombinant AntiMET-R produced by carcinoma cell lines transduced with the bi-directional lentiviral vector carrying AntiMET-R cDNAs (antibody, mouse IgG2a, kappa, V domains shown)
VH: QVQLQQPGTELVKPGASVKLSCKASGYTFTSYWIHWVKQRPGQGLEWIGEINPSSGRTNYNEKFKNKVTVTVDKSSTTAYMQLSNLTSEDSAVYYCASRGYWGQGTTLTVSS
VL: DIVLTQSPASLAVSLGQRATISCKASQSVDYDGGSYMSWFQQRPGQPPKLLISAASNLESGIPARFSGSGSGTDFTLNIHPVEEEDVATYYCQQSYEDPLTFGAGTKLELKR
B2: AntiMET-R, anti-Met monoclonal antibody produced by the hybridoma cell line ICLC PD 05006 (antibody, mouse IgG2a, kappa, V domains shown)
VH: QVQLQQPGTELVKPGASVKLSCKASGYTFTSYWIHWVKQRPGQGLEWIGEINPSSGRTNYNEKFKNKVTVTVDKSSTTAYMQLSNLTSEDSAVYYCASRGYWGQGTTLTVSS
VL: DIVLTQSPASLAVSLGQRATISCKASQSVDYDGGSYMSWFQQRPGQPPKLLISAASNLESGIPARFSGSGSGTDFTLNIHPVEEEDVATYYCQQSYEDPLTFGAGTKLELKR
notes: Mouse monoclonal antibody from a hybridoma; They may include leader peptides; also called purified AntiMET-R

Legend:
[1] = molecular target: T1, Hepatocyte Growth Factor Receptor (HGFR, Met receptor), full length, endogenous in human tumor cells (GTL-16) (human, UniProt P08581 25-1390); experiment: immunoprecipitation of Met receptor from cell lysates, Western blot with anti-Met C-terminal antibody (FIG. 11A)
T1 construct: whole, on cells; The mature receptor is a disulfide-linked alpha/beta heterodimer cleaved from one precursor; also called HGF receptor
T1 sequence (P08581 25-1390): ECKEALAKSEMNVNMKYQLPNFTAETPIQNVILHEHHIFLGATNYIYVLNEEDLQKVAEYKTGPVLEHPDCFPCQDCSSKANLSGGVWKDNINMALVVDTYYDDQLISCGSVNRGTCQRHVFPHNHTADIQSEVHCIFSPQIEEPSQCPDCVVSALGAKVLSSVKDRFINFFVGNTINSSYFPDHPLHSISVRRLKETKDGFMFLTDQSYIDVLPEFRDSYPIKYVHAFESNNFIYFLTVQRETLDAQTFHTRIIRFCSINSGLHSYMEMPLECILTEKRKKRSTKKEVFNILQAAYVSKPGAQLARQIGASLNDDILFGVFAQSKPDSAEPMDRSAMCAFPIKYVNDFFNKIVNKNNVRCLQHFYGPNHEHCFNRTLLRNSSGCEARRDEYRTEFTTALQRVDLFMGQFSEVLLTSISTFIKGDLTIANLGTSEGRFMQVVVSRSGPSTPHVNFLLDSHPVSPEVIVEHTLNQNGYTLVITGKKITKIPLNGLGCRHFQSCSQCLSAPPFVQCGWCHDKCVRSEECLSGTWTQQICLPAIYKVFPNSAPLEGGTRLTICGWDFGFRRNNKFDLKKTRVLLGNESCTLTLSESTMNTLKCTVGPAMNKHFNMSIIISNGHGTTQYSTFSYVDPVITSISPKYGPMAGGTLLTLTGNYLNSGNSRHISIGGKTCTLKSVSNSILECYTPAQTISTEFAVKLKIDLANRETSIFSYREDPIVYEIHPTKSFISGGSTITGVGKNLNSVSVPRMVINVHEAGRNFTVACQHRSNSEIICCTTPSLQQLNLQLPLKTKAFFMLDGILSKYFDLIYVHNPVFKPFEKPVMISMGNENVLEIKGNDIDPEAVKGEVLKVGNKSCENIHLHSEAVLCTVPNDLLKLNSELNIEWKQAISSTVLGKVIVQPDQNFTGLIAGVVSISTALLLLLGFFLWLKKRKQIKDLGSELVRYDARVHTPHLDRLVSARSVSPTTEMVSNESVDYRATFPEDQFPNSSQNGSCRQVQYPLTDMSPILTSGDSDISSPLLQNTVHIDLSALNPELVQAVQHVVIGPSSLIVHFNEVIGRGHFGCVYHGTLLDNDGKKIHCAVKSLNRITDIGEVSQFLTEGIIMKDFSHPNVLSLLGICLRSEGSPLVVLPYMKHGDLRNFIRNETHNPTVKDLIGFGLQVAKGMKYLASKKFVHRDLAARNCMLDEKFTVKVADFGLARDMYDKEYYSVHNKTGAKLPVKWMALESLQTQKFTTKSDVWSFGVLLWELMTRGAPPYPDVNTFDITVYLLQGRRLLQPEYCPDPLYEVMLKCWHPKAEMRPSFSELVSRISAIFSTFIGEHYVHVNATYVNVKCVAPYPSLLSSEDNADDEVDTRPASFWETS
Procedure: FIG. 11: The recombinant AntiMET-R binds with high affinity the extracellular domain of Met. (A) Western blot analysis of cell lysates containing the Met Receptor immunoprecipitated with the AntiMET-R derived from different sources (hybridoma or genetically modified carcinoma cell line). The immunoprecipitation was performed incubating Seph. Prot. G with cell culture supernatants from 1: Hybridoma producing unrelated MAb; 2 Hybridoma producing AntiMET-R MAb; 3: MDA-MB 435 cells infected with lentiviral vector carrying cDNAs for AntiMET-R MAb 4: MDA-MB 435 cells not infected. Samples were subjected to SDS-PAGE under reducing condition and the corresponding filters were probed with an anti-Met antibody directed against the c-Terminal tail of the receptor. (B) Binding assay of the AntiMET-R and the recombinant AntiMET-R to the extracellular domain of the Met Receptor. 96 wells plate coated with purified MET extracellular domain fused to the Fc domain derived from Human Ig (100 ng/well) was incubated with increasing concentrations of purified AntiMET-R or recombinant AntiMET-R (from 0 to 5.5 nM). […] To control the specificity of binding we performed the same assay using wells coated with Fc-Ron (a chimera protein generated fusing the Fc domain of Human Ig to the extracellular domain of the Ron receptor, a protein belonging to the Met receptor family).

[2] = molecular target: T2, Decoy Met (aminoacids 1-932), soluble recombinant entire extracellular region of human Met, myc- and … (human, UniProt P08581 25-932); experiment: immunoprecipitation from conditioned medium, Western blot with anti-myc
T2 construct: range 25-932; Numbering follows GenBank X54559; also called myc-tagged Decoy Met; Met ectodomain
T2 sequence (P08581 25-932 limits assumed): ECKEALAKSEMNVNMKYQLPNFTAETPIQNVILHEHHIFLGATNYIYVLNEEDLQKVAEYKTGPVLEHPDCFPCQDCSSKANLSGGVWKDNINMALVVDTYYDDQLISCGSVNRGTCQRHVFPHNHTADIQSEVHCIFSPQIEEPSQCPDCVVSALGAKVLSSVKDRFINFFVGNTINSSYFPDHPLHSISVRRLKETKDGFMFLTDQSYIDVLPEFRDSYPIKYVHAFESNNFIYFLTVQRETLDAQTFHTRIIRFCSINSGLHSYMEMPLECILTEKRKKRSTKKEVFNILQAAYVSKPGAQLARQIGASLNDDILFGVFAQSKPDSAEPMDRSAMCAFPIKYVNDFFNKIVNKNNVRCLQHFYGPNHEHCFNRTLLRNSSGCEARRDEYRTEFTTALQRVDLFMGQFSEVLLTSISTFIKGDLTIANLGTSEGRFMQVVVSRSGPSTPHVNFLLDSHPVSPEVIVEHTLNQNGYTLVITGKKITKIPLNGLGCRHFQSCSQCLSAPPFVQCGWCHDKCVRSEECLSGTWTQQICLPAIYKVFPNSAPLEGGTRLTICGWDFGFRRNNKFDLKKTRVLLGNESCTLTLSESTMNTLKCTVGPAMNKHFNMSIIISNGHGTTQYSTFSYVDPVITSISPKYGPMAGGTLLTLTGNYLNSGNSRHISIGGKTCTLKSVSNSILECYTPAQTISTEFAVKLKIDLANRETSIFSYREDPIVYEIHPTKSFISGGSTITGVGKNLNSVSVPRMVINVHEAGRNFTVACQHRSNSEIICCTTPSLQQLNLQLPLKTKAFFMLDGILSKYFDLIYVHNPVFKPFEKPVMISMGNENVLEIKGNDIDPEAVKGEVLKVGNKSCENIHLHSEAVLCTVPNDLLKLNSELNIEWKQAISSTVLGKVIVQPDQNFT
Description: (§1) FIG. 18: AntiMET-R specifically recognizes an epitope located in the IPTs region. Conditioned media of MDA-MB-435 cells transduced with lentiviral vector particles encoding for myc-tagged Decoy Met, myc-tagged SEMA PSI and myc-tagged PSI IPT1-4 were immunoprecipitated with the antiMET-R antibody and detected by Western blot using a biotinylated anti-myc antibody (right panel). Equal amounts of conditioned media were loaded as a control for protein expression (left panel). CTRL: conditioned medium of MDA-MB-435 cells transduced with an empty lentiviral vector. Decoy Met: conditioned medium of MDA-MB-435 cells transduced with a lentiviral vector expressing the entire HGFR extracellular domain. PSI-IPT: conditioned medium of MDA-MB-435 cells transduced with a lentiviral vector expressing PSI, IPT-1, IPT-2, IPT-3, IPT-4 domains of the HGFR. SEMA-PSI: conditioned medium of MDA-MB-435 cells transduced with a lentiviral vector expressing Sema and PSI domains of the HGFR. On the right molecular weight in KD are shown.
(§2) Conditioned media of MDA-MB-435 cells transduced with myc-tagged Decoy Met, SEMA PSI and PSI IPT were immunoprecipitated with the AntiMET-R antibody and detected by Western blot using a biotinylated anti-myc antibody (FIG. 18, right panel). […]

[3] = molecular target: T3, SEMA PSI (aminoacids 1-562), truncated form of Decoy Met containing the SEMA domain and the PSI region, myc- … (human, UniProt P08581 25-562); experiment: as above
T3 construct: range 25-562; also called myc-tagged SEMA PSI
T3 sequence (P08581 25-562 limits assumed): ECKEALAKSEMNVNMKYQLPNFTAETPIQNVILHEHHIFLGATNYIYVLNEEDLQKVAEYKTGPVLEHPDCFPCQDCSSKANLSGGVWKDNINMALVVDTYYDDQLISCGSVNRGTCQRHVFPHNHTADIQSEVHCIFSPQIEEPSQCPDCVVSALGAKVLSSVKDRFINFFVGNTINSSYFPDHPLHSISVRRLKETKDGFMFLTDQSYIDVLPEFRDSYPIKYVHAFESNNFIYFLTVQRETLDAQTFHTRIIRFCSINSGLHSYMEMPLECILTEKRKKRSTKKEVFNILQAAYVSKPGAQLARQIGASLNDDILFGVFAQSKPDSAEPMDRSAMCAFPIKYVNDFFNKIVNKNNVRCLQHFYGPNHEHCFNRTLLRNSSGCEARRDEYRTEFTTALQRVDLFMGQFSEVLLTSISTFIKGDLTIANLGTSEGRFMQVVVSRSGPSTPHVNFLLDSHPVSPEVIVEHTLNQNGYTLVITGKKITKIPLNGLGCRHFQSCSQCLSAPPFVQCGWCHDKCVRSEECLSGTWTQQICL
Description: as §1, §2

[4] = molecular target: T1, Hepatocyte Growth Factor Receptor …; experiment: flow cytometry on GTL-16 cells (50 ug/ml antibody) and immunofluorescence on fixed GTL-16 cells (2.5 ug/ml)
Procedure: For Flow cytometry analysis, 10⁵ GTL-16 cells were detached with PBS-EDTA 0.025%, washed with PBS and incubated with 50 μg/ml of antiMet-R antibody or the same amount of isotype control mouse Ig for 15′ RT. After 2 washes with PBS, the cells were incubated with 15 μg/ml of FITC conjugated Goat anti-mouse Ig (Jackson Immunoresearch laboratories) for 15′ RT. Cells were than washed, re-suspended in PBS-5% BSA and analysed by flow cytometry (Becton Dickinson, Mountain View, Calif.). GTL-16 cells were fixed in methanol:aceton (3:1) for 5′ on ice then blocked with 2% goat serum in PBS for 30′ at RT. […] Analysis of the samples was performed with a fluorescence microscope (DM-IRB, Leica Microsystems).
GTL-16 cells, a human gastric carcinoma cell line, were incubated with the AntiMET-R antibody. […] Infact the mean of fluorescence intensity in cells labelled with the antiMet-R antibody was increased respect to ctrl cells (FIG. 20, panel A). GTL-16 cells were also incubated, after fixation, with the antiMet-R antibody to perform an immunofluoresce analysis.

Binder | binding result [1] | binding result [2] | binding result [3] | binding result [4]
B1 | binds |  |  | 
B2 |  | binds | no binding | binds
